From article PMC3080406, “Efficient Conversion of Phenylpyruvic Acid to Phenyllactic Acid by Using Whole Cells of Bacillus coagulans SDM” (PLoS ONE, 2011)

Assays:
Test in all cases: NADH oxidation assay
Type in all cases: biochemical, Heyndrickxia coagulans
NADH oxidation assay [1] = substrate: CC(=O)C(=O)O; details: 0.2 mM NADH, 5 mM FDP (fructose 1,6-bisphosphate), 50 mM Tris-HCl pH 7.0, 50°C
Source text: (§1) NADH oxidation assay on L-nLDH

NADH oxidation assay [2] = substrate: O=C(O)C(=O)Cc1ccccc1; details: 0.2 mM NADH, 5 mM FDP (fructose 1,6-bisphosphate), 50 mM Tris-HCl pH 7.0, 50°C
Source text: as §1

NADH oxidation assay [3] = substrate: CC(=O)C(=O)O; details: 0.2 mM NADH, 50 mM Tris-HCl pH 7.0, 50°C, no FDP
Source text: (§2) NADH oxidation assay on D-nLDH

NADH oxidation assay [4] = substrate: O=C(O)C(=O)Cc1ccccc1; details: 0.2 mM NADH, 50 mM Tris-HCl pH 7.0, 50°C, no FDP
Source text: as §2

B1: L-nLDH (Heyndrickxia coagulans) (protein)
chain: MKKVNRIAVVGTGAVGTSYCYAMINQGVAEELVLIDINEAKAEGEAMDLNHGLPFAPTPTRVWKGDYSDCGTADLVVITAGSPQKPGETRLDLVSKNAKIFKGMIKSIMDSGFNGIFLVASNPVDILTYVTWKESGLPKEHVIGSGTVLDSARLRNSLSAQFGIDPRNVHAAIIGEHGDTELPVWSHTNIGYDTIESYLQKGIIDEKTLDDIFVNTRDAAYHIIERKGATFYGIGMSLTRITRAILNNENSVLTVSAFLEGQYGNSDVYVGVPAIINRQGIREVVEIKLNEKEQEQFNHSVKVLKETMAPVL
notes: full-length ldhL in pET-28a, N- and C-terminal His tags kept, expressed in E. coli BL21(DE3), HisTrap purified
Km (NADH oxidation assay [1]): 2.6 mM
Vmax (NADH oxidation assay [1]): 1800 µmol/min/mg
kcat (NADH oxidation assay [1]): 1170 s⁻¹
kcat/Km (NADH oxidation assay [1]): 450000 M⁻¹ s⁻¹
Km (NADH oxidation assay [2]): 4.3 mM
Vmax (NADH oxidation assay [2]): 72.6 µmol/min/mg
kcat (NADH oxidation assay [2]): 47.2 s⁻¹
kcat/Km (NADH oxidation assay [2]): 11000 M⁻¹ s⁻¹

B2: D-nLDH (Heyndrickxia coagulans) (protein)
chain: MRKVVAYETRADEFPLFQKFARKFDLDIKYIDDVLTPETAMEAKGAEAVTILGNYPVGSGTFKALRDVGVKYIGLRTAGNNHIDQEAAKAYGIRFSNVAYSPYCVADFATMLILMCVRKAKQILSRVEAQDFSVEGIQGREMRNLTIGIIGAGRIGSIVAKNLSGFGCNLIAHDTVERDELRGILKYVSLDELLEESDVITIHTPLFESTYHMINQERIAKIKDGVCIINCSRGAEVDTYALIAGIEAGKAGAAGIDVLEDEEGIFHYDRRTDILDHRQLAILRSFPNVIVTPHTAFYPNQAVSDMAEMALTSLVSFVETGKSRWEIKS
notes: full-length ldhD in pET-28a, N- and C-terminal His tags kept, expressed in E. coli BL21(DE3), HisTrap purified
Km (NADH oxidation assay [3]): 2.2 mM
Vmax (NADH oxidation assay [3]): 33.7 µmol/min/mg
kcat (NADH oxidation assay [3]): 23.6 s⁻¹
kcat/Km (NADH oxidation assay [3]): 11000 M⁻¹ s⁻¹
Km (NADH oxidation assay [4]): 4.4 mM
Vmax (NADH oxidation assay [4]): 23.5 µmol/min/mg
kcat (NADH oxidation assay [4]): 16.5 s⁻¹
kcat/Km (NADH oxidation assay [4]): 3900 M⁻¹ s⁻¹
